Article PMC9482650, “Quantitative fragmentomics allow affinity mapping of interactomes” (Nature Communications, 2022)

T1: DFNB31_2, Q9P202
T1 sequence (Q9P202 274-371, limits assumed, looked up): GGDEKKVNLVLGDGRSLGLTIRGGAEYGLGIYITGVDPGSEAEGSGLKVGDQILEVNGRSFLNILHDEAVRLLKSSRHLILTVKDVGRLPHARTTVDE

T2: ARHGEF11, O15085
T2 sequence (O15085 42-136, limits assumed, looked up): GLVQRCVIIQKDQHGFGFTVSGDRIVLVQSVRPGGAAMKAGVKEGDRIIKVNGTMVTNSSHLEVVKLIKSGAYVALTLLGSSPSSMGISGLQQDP

T3: TJP3_3, O95049
T3 sequence (O95049 375-456, limits assumed, looked up): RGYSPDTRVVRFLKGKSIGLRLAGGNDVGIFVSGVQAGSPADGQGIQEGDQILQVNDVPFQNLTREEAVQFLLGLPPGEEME

T4: PARD3B_1, Q8TEW8
T4 sequence (Q8TEW8 196-299, limits assumed, looked up): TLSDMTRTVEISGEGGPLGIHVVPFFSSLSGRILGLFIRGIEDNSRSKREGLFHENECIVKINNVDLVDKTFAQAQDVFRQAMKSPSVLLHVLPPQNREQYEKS

T5: SNTG2, Q9NY99
T5 sequence (Q9NY99 68-166, limits assumed, looked up): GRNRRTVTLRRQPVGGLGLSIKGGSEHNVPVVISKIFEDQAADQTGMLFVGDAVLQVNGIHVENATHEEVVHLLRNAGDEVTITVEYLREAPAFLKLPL

T6: SIPA1L2, Q9P2F8
T6 sequence (Q9P2F8 945-1036, limits assumed, looked up): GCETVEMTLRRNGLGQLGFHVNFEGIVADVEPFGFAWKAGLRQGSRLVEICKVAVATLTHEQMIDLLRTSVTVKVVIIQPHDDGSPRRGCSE

T7: DFNB31_1, Q9P202
T7 sequence (Q9P202 135-233, limits assumed, looked up): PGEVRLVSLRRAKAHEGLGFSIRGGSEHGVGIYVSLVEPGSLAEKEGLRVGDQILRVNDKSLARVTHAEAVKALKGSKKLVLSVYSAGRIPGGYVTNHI

T8: RADIL, Q96JH8
T8 sequence (Q96JH8 971-1071, limits assumed, looked up): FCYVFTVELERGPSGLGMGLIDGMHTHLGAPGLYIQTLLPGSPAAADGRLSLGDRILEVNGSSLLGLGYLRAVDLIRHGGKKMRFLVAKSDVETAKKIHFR

T9: LNX2_3, Q8N448
T9 sequence (Q8N448 463-564, limits assumed, looked up): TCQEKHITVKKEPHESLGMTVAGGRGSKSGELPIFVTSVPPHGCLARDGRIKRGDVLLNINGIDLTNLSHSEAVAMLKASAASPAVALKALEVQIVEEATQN

T10: MPP2, Q14168
T10 sequence (Q14168 180-250, limits assumed, looked up): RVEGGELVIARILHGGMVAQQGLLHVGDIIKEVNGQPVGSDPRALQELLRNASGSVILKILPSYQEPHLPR

T11: LIN7C, Q9NUP9
T11 sequence (Q9NUP9 88-185, limits assumed, looked up): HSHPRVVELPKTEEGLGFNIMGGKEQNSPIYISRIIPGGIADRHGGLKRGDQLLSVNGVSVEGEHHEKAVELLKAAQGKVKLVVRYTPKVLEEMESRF

T12: GRIP1_3, Q9Y3R0
T12 sequence (Q9Y3R0 247-346, limits assumed, looked up): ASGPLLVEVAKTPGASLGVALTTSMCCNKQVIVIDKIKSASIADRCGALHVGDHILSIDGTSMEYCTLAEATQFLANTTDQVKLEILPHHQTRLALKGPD


biological target: TJP1_2, Q07157; experiment: holdup assay; parameters: key: below the threshold = too weak to quantify, mostly under pKd 3.1 to 4; settings: plain residues with an end cap or a label only (N-terminal biotin on a linker: ado-ado)
Sequence (Q07157 181-274): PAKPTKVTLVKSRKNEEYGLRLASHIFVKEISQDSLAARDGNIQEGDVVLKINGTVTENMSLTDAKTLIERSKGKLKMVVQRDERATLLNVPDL

Row | Binder | pKd
1 | GIKKITSTAL [RPS6KA3, P51812] | below the threshold

biological target: CASK, O14936; experiment: holdup assay; parameters: key: below the threshold = too weak to quantify, mostly under pKd 3.1 to 4; settings: plain residues with an end cap or a label only (N-terminal biotin on a linker: ado-ado)
Sequence (O14936 487-570): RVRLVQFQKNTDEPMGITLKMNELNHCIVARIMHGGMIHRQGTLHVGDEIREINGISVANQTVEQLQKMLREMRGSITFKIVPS

Row | Binder | pKd
2 | GIKKITSTAL [RPS6KA3, P51812] | below the threshold

biological target: T1, DFNB31_2, Q9P202; experiment: holdup assay; parameters: key: below the threshold = too weak to quantify, mostly under pKd 3.1 to 4; settings: plain residues with an end cap or a label only (N-terminal biotin on a linker: ado-ado)

Row | Binder | pKd
3 | GIKKITSTAL [RPS6KA3, P51812] | below the threshold

biological target: T2, ARHGEF11, O15085; experiment: holdup assay; parameters: key: below the threshold = too weak to quantify, mostly under pKd 3.1 to 4; settings: plain residues with an end cap or a label only (N-terminal biotin on a linker: ado-ado)

Row | Binder | pKd
4 | GIKKITSTAL [RPS6KA3, P51812] | 5.01

biological target: MAGI2_2, Q86UL8; experiment: holdup assay; parameters: key: below the threshold = too weak to quantify, mostly under pKd 3.1 to 4; settings: plain residues with an end cap or a label only (N-terminal biotin on a linker: ado-ado)
Sequence (Q86UL8 410-522): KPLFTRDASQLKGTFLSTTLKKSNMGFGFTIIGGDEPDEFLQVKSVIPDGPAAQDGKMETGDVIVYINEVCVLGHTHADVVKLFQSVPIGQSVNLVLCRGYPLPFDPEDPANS

Row | Binder | pKd
5 | GIKKITSTAL [RPS6KA3, P51812] | 4.16

biological target: DLG5_1, Q8TDM6; experiment: holdup assay; parameters: key: below the threshold = too weak to quantify, mostly under pKd 3.1 to 4; settings: plain residues with an end cap or a label only (N-terminal biotin on a linker: ado-ado)
Sequence (Q8TDM6 617-713): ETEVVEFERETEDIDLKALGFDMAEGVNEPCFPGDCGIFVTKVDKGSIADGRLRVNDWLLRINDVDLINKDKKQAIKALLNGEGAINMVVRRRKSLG

Row | Binder | pKd
6 | GIKKITSTAL [RPS6KA3, P51812] | below the threshold

biological target: MAST1, Q9Y2H9; experiment: holdup assay; parameters: key: below the threshold = too weak to quantify, mostly under pKd 3.1 to 4; settings: plain residues with an end cap or a label only (N-terminal biotin on a linker: ado-ado)
Sequence (Q9Y2H9 962-1065): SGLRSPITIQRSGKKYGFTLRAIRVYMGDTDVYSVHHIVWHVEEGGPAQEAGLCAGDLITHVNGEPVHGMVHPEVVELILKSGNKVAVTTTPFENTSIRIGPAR

Row | Binder | pKd
7 | GIKKITSTAL [RPS6KA3, P51812] | 5.06

biological target: T3, TJP3_3, O95049; experiment: holdup assay; parameters: key: below the threshold = too weak to quantify, mostly under pKd 3.1 to 4; settings: plain residues with an end cap or a label only (N-terminal biotin on a linker: ado-ado)

Row | Binder | pKd
8 | GIKKITSTAL [RPS6KA3, P51812] | below the threshold

biological target: T4, PARD3B_1, Q8TEW8; experiment: holdup assay; parameters: key: below the threshold = too weak to quantify, mostly under pKd 3.1 to 4; settings: plain residues with an end cap or a label only (N-terminal biotin on a linker: ado-ado)

Row | Binder | pKd
9 | GIKKITSTAL [RPS6KA3, P51812] | 4.05

biological target: T5, SNTG2, Q9NY99; experiment: holdup assay; parameters: key: below the threshold = too weak to quantify, mostly under pKd 3.1 to 4; settings: plain residues with an end cap or a label only (N-terminal biotin on a linker: ado-ado)

Row | Binder | pKd
10 | GIKKITSTAL [RPS6KA3, P51812] | 4.23

biological target: T6, SIPA1L2, Q9P2F8; experiment: holdup assay; parameters: key: below the threshold = too weak to quantify, mostly under pKd 3.1 to 4; settings: plain residues with an end cap or a label only (N-terminal biotin on a linker: ado-ado)

Row | Binder | pKd
11 | GIKKITSTAL [RPS6KA3, P51812] | below the threshold

biological target: T7, DFNB31_1, Q9P202; experiment: holdup assay; parameters: key: below the threshold = too weak to quantify, mostly under pKd 3.1 to 4; settings: plain residues with an end cap or a label only (N-terminal biotin on a linker: ado-ado)

Row | Binder | pKd
12 | GIKKITSTAL [RPS6KA3, P51812] | 4.39

biological target: T8, RADIL, Q96JH8; experiment: holdup assay; parameters: key: below the threshold = too weak to quantify, mostly under pKd 3.1 to 4; settings: plain residues with an end cap or a label only (N-terminal biotin on a linker: ado-ado)

Row | Binder | pKd
13 | GIKKITSTAL [RPS6KA3, P51812] | below the threshold

biological target: T9, LNX2_3, Q8N448; experiment: holdup assay; parameters: key: below the threshold = too weak to quantify, mostly under pKd 3.1 to 4; settings: plain residues with an end cap or a label only (N-terminal biotin on a linker: ado-ado)

Row | Binder | pKd
14 | GIKKITSTAL [RPS6KA3, P51812] | 3.49

biological target: MAGI2_4, Q86UL8; experiment: holdup assay; parameters: key: below the threshold = too weak to quantify, mostly under pKd 3.1 to 4; settings: plain residues with an end cap or a label only (N-terminal biotin on a linker: ado-ado)
Sequence (Q86UL8 772-865): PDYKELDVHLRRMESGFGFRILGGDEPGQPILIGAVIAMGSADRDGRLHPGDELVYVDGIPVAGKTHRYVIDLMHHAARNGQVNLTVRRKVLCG

Row | Binder | pKd
15 | GIKKITSTAL [RPS6KA3, P51812] | 3.8

biological target: FRMPD2_1, Q68DX3; experiment: holdup assay; parameters: key: below the threshold = too weak to quantify, mostly under pKd 3.1 to 4; settings: plain residues with an end cap or a label only (N-terminal biotin on a linker: ado-ado)
Sequence (Q68DX3 770-861): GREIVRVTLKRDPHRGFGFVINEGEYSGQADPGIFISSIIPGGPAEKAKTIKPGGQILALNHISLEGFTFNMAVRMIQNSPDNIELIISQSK

Row | Binder | pKd
16 | GIKKITSTAL [RPS6KA3, P51812] | 3.54

biological target: Inadl_5, Q8NI35; experiment: holdup assay; parameters: key: below the threshold = too weak to quantify, mostly under pKd 3.1 to 4; settings: plain residues with an end cap or a label only (N-terminal biotin on a linker: ado-ado)
Sequence (Q8NI35 673-780): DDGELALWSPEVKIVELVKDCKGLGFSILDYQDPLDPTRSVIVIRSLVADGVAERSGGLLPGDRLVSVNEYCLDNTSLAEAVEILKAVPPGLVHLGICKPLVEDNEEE

Row | Binder | pKd
17 | GIKKITSTAL [RPS6KA3, P51812] | 3.52

biological target: T10, MPP2, Q14168; experiment: holdup assay; parameters: key: below the threshold = too weak to quantify, mostly under pKd 3.1 to 4; settings: plain residues with an end cap or a label only (N-terminal biotin on a linker: ado-ado)

Row | Binder | pKd
18 | GIKKITSTAL [RPS6KA3, P51812] | below the threshold

biological target: T11, LIN7C, Q9NUP9; experiment: holdup assay; parameters: key: below the threshold = too weak to quantify, mostly under pKd 3.1 to 4; settings: plain residues with an end cap or a label only (N-terminal biotin on a linker: ado-ado)

Row | Binder | pKd
19 | GIKKITSTAL [RPS6KA3, P51812] | below the threshold

biological target: DLG1_2, Q12959; experiment: holdup assay; parameters: key: below the threshold = too weak to quantify, mostly under pKd 3.1 to 4; settings: plain residues with an end cap or a label only (N-terminal biotin on a linker: ado-ado)
Sequence (Q12959 314-412): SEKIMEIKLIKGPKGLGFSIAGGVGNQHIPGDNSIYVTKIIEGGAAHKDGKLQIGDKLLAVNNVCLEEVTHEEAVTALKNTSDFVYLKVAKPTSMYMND

Row | Binder | pKd
20 | GIKKITSTAL [RPS6KA3, P51812] | 4.32

biological target: MAGI1_2, Q96QZ7; experiment: holdup assay; parameters: key: below the threshold = too weak to quantify, mostly under pKd 3.1 to 4; settings: plain residues with an end cap or a label only (N-terminal biotin on a linker: ado-ado)
Sequence (Q96QZ7 456-580): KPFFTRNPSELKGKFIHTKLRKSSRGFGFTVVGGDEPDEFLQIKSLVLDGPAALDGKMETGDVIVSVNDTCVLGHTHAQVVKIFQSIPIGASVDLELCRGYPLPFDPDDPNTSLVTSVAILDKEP

Row | Binder | pKd
21 | GIKKITSTAL [RPS6KA3, P51812] | 4.5

biological target: TJP2_1, Q9UDY2; experiment: holdup assay; parameters: key: below the threshold = too weak to quantify, mostly under pKd 3.1 to 4; settings: plain residues with an end cap or a label only (N-terminal biotin on a linker: ado-ado)
Sequence (Q9UDY2 24-128): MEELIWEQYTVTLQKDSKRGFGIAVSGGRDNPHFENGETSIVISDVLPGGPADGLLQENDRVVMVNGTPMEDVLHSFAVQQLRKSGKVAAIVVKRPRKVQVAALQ

Row | Binder | pKd
22 | GIKKITSTAL [RPS6KA3, P51812] | 3.89

biological target: T12, GRIP1_3, Q9Y3R0; experiment: holdup assay; parameters: key: below the threshold = too weak to quantify, mostly under pKd 3.1 to 4; settings: plain residues with an end cap or a label only (N-terminal biotin on a linker: ado-ado)

Row | Binder | pKd
23 | GIKKITSTAL [RPS6KA3, P51812] | below the threshold

biological target: GIPC2, Q8TF65; experiment: holdup assay; parameters: key: below the threshold = too weak to quantify, mostly under pKd 3.1 to 4; settings: plain residues with an end cap or a label only (N-terminal biotin on a linker: ado-ado)
Sequence (Q8TF65 112-203): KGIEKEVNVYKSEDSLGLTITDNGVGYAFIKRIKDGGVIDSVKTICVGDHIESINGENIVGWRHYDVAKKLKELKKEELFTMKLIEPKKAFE

Row | Binder | pKd
24 | GIKKITSTAL [RPS6KA3, P51812] | below the threshold

biological target: FRMPD3, Q5JV73; experiment: holdup assay; parameters: key: below the threshold = too weak to quantify, mostly under pKd 3.1 to 4; settings: plain residues with an end cap or a label only (N-terminal biotin on a linker: ado-ado)
Sequence (Q5JV73 12-100): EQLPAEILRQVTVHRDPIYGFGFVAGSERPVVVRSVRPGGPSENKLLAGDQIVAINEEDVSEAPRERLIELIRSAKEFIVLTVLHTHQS

Row | Binder | pKd
25 | GIKKITSTAL [RPS6KA3, P51812] | below the threshold

biological target: GRIP2_7, Q9C0E4; experiment: holdup assay; parameters: key: below the threshold = too weak to quantify, mostly under pKd 3.1 to 4; settings: plain residues with an end cap or a label only (N-terminal biotin on a linker: ado-ado)
Sequence (Q9C0E4 934-1023): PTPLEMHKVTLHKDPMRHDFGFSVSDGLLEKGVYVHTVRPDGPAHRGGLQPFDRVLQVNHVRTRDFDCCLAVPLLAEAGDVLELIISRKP

Row | Binder | pKd
26 | GIKKITSTAL [RPS6KA3, P51812] | below the threshold
